Assay results as given in PMC7347456 (Structure (London, England : 1993), 2020).
Ends that are not written are not given here.

Legend:
[1] = molecular target: full-length human LRH-1 A324R (human, UniProt O00482 1-541, A324R); assay: fluorescence polarisation
[2] = molecular target: T1, full-length human LRH-1 (Liver Receptor Homolog-1; NR5A2), wild type (human, UniProt O00482 1-541); assay: fluorescence polarisation
[3] = molecular target: full-length human LRH-1 R174D/D314R (human, UniProt O00482 1-541, R174D | D314R); assay: fluorescence polarisation
[4] = molecular target: full-length human LRH-1 S148R (human, UniProt O00482 1-541, S148R); assay: fluorescence polarisation
[5] = molecular target: full-length human LRH-1 D314R (human, UniProt O00482 1-541, D314R); assay: fluorescence polarisation
[6] = molecular target: T1, full-length human LRH-1 (Liver Receptor …); assay: cross-linking

T1 sequence (O00482 whole entry): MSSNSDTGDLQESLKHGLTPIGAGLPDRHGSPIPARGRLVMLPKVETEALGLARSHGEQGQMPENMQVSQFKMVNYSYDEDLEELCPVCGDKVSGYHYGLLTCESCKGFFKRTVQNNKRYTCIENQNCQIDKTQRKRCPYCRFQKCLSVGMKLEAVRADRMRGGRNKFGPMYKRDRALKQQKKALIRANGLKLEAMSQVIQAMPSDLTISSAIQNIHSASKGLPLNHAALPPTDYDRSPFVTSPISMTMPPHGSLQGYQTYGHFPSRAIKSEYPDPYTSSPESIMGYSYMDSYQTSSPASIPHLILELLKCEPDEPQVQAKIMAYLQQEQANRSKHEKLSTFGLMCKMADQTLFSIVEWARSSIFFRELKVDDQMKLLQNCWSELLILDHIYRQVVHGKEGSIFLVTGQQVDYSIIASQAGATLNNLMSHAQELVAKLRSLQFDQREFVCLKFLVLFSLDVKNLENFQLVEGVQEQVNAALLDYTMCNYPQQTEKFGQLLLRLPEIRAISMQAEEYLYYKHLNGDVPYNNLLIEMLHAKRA
Chain of full-length human LRH-1 R174D/D314R (O00482 whole entry R174D/D314R): as the sequence (O00482 whole entry) above, with R174D, D314R counted along it
Chain of full-length human LRH-1 D314R (O00482 whole entry D314R): as the sequence (O00482 whole entry) above, with D314R counted along it
Chain of full-length human LRH-1 S148R (O00482 whole entry S148R): as the sequence (O00482 whole entry) above, with S148R counted along it
Chain of full-length human LRH-1 A324R (O00482 whole entry A324R): as the sequence (O00482 whole entry) above, with A324R counted along it

Kd [1] [nM] | Kd [2] [nM] | Kd [3] [nM] | Kd [4] [nM] | Kd [5] [nM] | binding result [6] | Binder
1510 | 1360 | 1720 | 7030 | 2280 |  | {FAM}-EEPSLLKKLLLAPA [N-terminally FAM-labeled PGC1α co-regulator peptide (740-EEPSLLKKLLLAPA-753)]
 |  |  |  |  | binds | EEPSLLKKLLLAPA [PGC1α co-activator peptide (740-EEPSLLKKLLLAPA-753), unlabeled]
